± gives the uncertainty stated by the source.
Assay: self-splicing fitness, log relative to wild type (ln ratio); higher = more splicing; Tetrahymena group I intron in knt gene, E. coli kanamycin selection, DiMSum; sequences stand for … in CUCUCU…GGAGGGAAAAGUUAUCAGGCAUGCACCUGGUAGCUAGUCUUUAAACCAAUAGAUUGCAUCGGUUUAAAAGGCAAGACCGUCAAAUUGCGGGAAAGGGGUCAACAGCCGUUCAGUACCAAGUCUCAGGGGAAACUUUGAGAUGGCCUUGCAAAGGGUAUGGUAAUAAGCUGACGGACAUGGUCCUAACCACGCAGCCAAGUCCUAAGUCAACAGAUCUUCUGUUGAUAUGGAUGCAGUUCACAGACUAAAUGUCGGUCGGGGAAGAUGUAUUCUUCUCAUAAGAUAUAGUCGGACCUCUCCUUAAUGGGAGCUAGCGGAUGAAGUGAUGCAACACUGGAGCCGCUGGGAACUAAUUUGUAUGCGAAAGUAUAUUGAUUAGUUUUGGAGUACUCGUGGUCG
In short: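 DiMSum derived fitness as the error-weighted combination of fold changes across replicates, kanamycin versus no kanamycin, normalised to wild type. E. coli BL21(DE3) held the library, which randomised all eight P1ex-region intron nucleotides within the knt kanamycin-resistance gene on pET-22b(+). Six replicate transformations grew overnight at 37°C or 30°C on LB agar with or without 25 μg/mL kanamycin, also containing 100 μg/mL carbenicillin, 50 μM IPTG and 0.2% rhamnose, and pooled colonies were amplicon-sequenced on an Illumina HiSeq 2500.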

Sequence | self-splicing fitness (ln) (30 °C) | self-splicing fitness (ln) (37 °C)
GAGCAGCAAUAUUACGAUUG | -2.17 ± 0.083 | -2.41 ± 0.17
CCUAAGCAAUAUUACGCGCA | -3.25 ± 0.24 | -2.2 ± 0.19
ACGUAGCAAUAUUACGAGGA | -2.78 ± 0.33 | -2.75 ± 0.38
GGUAAGCAAUAUUACGGAGC | -2.99 ± 0.2 | -1.98 ± 0.22
CAUGAGCAAUAUUACGGUAG | -2.01 ± 0.1 | -0.949 ± 0.11
CGUCAGCAAUAUUACGGCGA | -1.88 ± 0.17 | -1.57 ± 0.21
GAAGAGCAAUAUUACGUAUA | -2 ± 0.28 | -3.5 ± 0.34
GAAAAGCAAUAUUACGGCCG | -0.796 ± 0.087 | -0.537 ± 0.12
AAUUAGCAAUAUUACGUAUA | -1.83 ± 0.28 | -1.32 ± 0.38
GUUGAGCAAUAUUACGGGCC | -3.53 ± 0.5 | -1.82 ± 0.39
GGCAAGCAAUAUUACGAGUG | -1.1 ± 0.069 | -0.88 ± 0.071
AUGUAGCAAUAUUACGAGAC | -3.13 ± 0.31 | -2.09 ± 0.2
ACGAAGCAAUAUUACGGCGU | -2.47 ± 0.09 | -1.74 ± 0.11
UGCAAGCAAUAUUACGUGGC | -2.62 ± 0.16 | -1.68 ± 0.2
CGGAAGCAAUAUUACGAAAU | -3.59 ± 0.45 | -2.96 ± 0.31
CAGGAGCAAUAUUACGUUUU | -3.95 ± 0.35 | -2.3 ± 0.23
UGUUAGCAAUAUUACGAUUC | -2.39 ± 0.18 | -0.83 ± 0.18
AAGGAGCAAUAUUACGAGGA | -3.21 ± 0.46 | -1.95 ± 0.38
ACGCAGCAAUAUUACGCGUU | -3.56 ± 0.14 | -2.42 ± 0.18
AUUCAGCAAUAUUACGUCUU | -0.0261 ± 0.083 | 0.411 ± 0.089
AUCUAGCAAUAUUACGUAUC | -3.29 ± 0.24 | -1.74 ± 0.39
UUAGAGCAAUAUUACGAAGU | -3.03 ± 0.21 | -1.98 ± 0.28
GUCGAGCAAUAUUACGGUUG | -2.68 ± 0.2 | -2.15 ± 0.26
AGUCAGCAAUAUUACGCUAU | -0.623 ± 0.1 | -0.137 ± 0.11
GCUUAGCAAUAUUACGAUAG | -2.11 ± 0.096 | -0.174 ± 0.097

Sequence | self-splicing fitness (ln) (30 °C) | self-splicing fitness (ln) (37 °C)
CACCAGCAAUAUUACGCGGG | -3.44 ± 0.16 | -2.4 ± 0.15
CACGAGCAAUAUUACGGUGA | -3.17 ± 0.23 | -2.98 ± 0.19
GAGGAGCAAUAUUACGCUCC |  | -0.714 ± 0.48
CAUGAGCAAUAUUACGGUUG | -1.97 ± 0.094 | -0.986 ± 0.12
UGUAAGCAAUAUUACGUAAU | -2.84 ± 0.095 | -1.33 ± 0.12
GACCAGCAAUAUUACGAUCC | -1.93 ± 0.14 | -1.27 ± 0.17
GCGCAGCAAUAUUACGUGUU | -1.06 ± 0.075 | -0.857 ± 0.092
UCAAAGCAAUAUUACGGACG | -1.16 ± 0.079 | -0.282 ± 0.1
AGAUAGCAAUAUUACGGAUU | -1.39 ± 0.1 | 0.228 ± 0.13
UUGUAGCAAUAUUACGACAU | -0.918 ± 0.015 | -0.322 ± 0.034
CGAGAGCAAUAUUACGUAGG | -3.03 ± 0.15 | -1.39 ± 0.15
GACCAGCAAUAUUACGGGAU | -1.71 ± 0.084 | -0.575 ± 0.099
AACUAGCAAUAUUACGUAAC | 0.169 ± 0.15 | -1.5 ± 0.3
UCACAGCAAUAUUACGAACA | -1.58 ± 0.1 | -1.64 ± 0.11
AUAUAGCAAUAUUACGGCCA | -1.28 ± 0.22 | -0.185 ± 0.26
UUCCAGCAAUAUUACGACUG | -3.9 ± 0.21 | -2.99 ± 0.23
GCCUAGCAAUAUUACGUUCA | -1.37 ± 0.16 | -1.12 ± 0.17
GAAAAGCAAUAUUACGUUUG | -2.71 ± 0.097 | -2.02 ± 0.15
AGUAAGCAAUAUUACGAGUG | -3.01 ± 0.27 | -3.04 ± 0.43
AAACAGCAAUAUUACGUUCA | -0.713 ± 0.045 | -0.557 ± 0.063
GUUAAGCAAUAUUACGUGCU | -1.6 ± 0.087 | -0.714 ± 0.11
GUUGAGCAAUAUUACGGAUG | -3.56 ± 0.42 | -1.75 ± 0.36
GAGCAGCAAUAUUACGUGAG | -2.06 ± 0.069 | -0.264 ± 0.07
AUCAAGCAAUAUUACGUCGG | -3.01 ± 0.13 | -1.29 ± 0.12
CGUUAGCAAUAUUACGCGAU | -2.89 ± 0.16 | -3.12 ± 0.32

Sequence | self-splicing fitness (ln) (30 °C) | self-splicing fitness (ln) (37 °C)
GGAUAGCAAUAUUACGGACC | -0.822 ± 0.22 | -0.154 ± 0.25
CGACAGCAAUAUUACGUAAC | -4.37 ± 0.23 | -2.03 ± 0.31
CGUAAGCAAUAUUACGUCCG | -0.78 ± 0.059 | -0.649 ± 0.08
GCACAGCAAUAUUACGAGCU | -2.63 ± 0.11 | -1.07 ± 0.1
GUUAAGCAAUAUUACGCAAU | -3.09 ± 0.44 | 
UAUCAGCAAUAUUACGUCAC | -4 ± 0.31 | -1.83 ± 0.3
AAAGAGCAAUAUUACGCUUC | -2.33 ± 0.29 | -3.01 ± 0.43
UCAUAGCAAUAUUACGAAAA | -2.62 ± 0.48 | 
UUGAAGCAAUAUUACGGUAU | -2.49 ± 0.11 | -1.5 ± 0.18
ACAUAGCAAUAUUACGUUGU | -3.63 ± 0.15 | -2.78 ± 0.2
AUUGAGCAAUAUUACGGCUG | -1.83 ± 0.14 | -1.81 ± 0.17
AUUGAGCAAUAUUACGGAUG | -3.43 ± 0.28 | -2.69 ± 0.38
AACAAGCAAUAUUACGAAGA | -2.78 ± 0.12 | -2.12 ± 0.14
AGGGAGCAAUAUUACGGCUA | -2.09 ± 0.21 | -2.17 ± 0.18
AAAUAGCAAUAUUACGGGUA | -2.15 ± 0.12 | -1.41 ± 0.1
AGUAAGCAAUAUUACGUUCC | -1.85 ± 0.16 | -0.345 ± 0.13
CGGUAGCAAUAUUACGCAAG | -1.94 ± 0.11 | -1.02 ± 0.12
GUAGAGCAAUAUUACGCAAG | -0.744 ± 0.22 | -1.49 ± 0.27
AGGAAGCAAUAUUACGUUUU | -4.64 ± 0.31 | -1.82 ± 0.23
CAACAGCAAUAUUACGAGGG | -2.38 ± 0.073 | -2.2 ± 0.094
UGUCAGCAAUAUUACGAGAA | -1.43 ± 0.27 | -1.48 ± 0.22
UGCAAGCAAUAUUACGUGAC | -2.65 ± 0.39 | -2.19 ± 0.28
CAUAAGCAAUAUUACGUACU |  | -2 ± 0.32
GUCCAGCAAUAUUACGGUGG | -3.36 ± 0.15 | -2.71 ± 0.12
CUACAGCAAUAUUACGCGGC | -2.27 ± 0.15 | -0.807 ± 0.14

Sequence | self-splicing fitness (ln) (30 °C) | self-splicing fitness (ln) (37 °C)
AGUUAGCAAUAUUACGUUAA | -3.56 ± 0.38 | -1.48 ± 0.26
UAUAAGCAAUAUUACGACAG | -0.587 ± 0.11 | -0.0617 ± 0.15
UAGCAGCAAUAUUACGGGGA | -2.85 ± 0.2 | -1.73 ± 0.12
CAUAAGCAAUAUUACGUGGG | -3.38 ± 0.12 | -3.49 ± 0.18
CCGAAGCAAUAUUACGAUUG | -1.16 ± 0.093 | -0.0885 ± 0.095
CGAGAGCAAUAUUACGCGCA | -3.56 ± 0.48 | -1.38 ± 0.26
AGCGAGCAAUAUUACGCCGA |  | -0.607 ± 0.36
CUGCAGCAAUAUUACGUCAC | -3.39 ± 0.31 | 
CUCUAGCAAUAUUACGGUGG | -2.88 ± 0.15 | -2.48 ± 0.21
CUUAAGCAAUAUUACGCGAU | -1.91 ± 0.19 | -0.837 ± 0.18
CUGGAGCAAUAUUACGGUUA | -1.79 ± 0.26 | -2.31 ± 0.26
CUACAGCAAUAUUACGAAUC | -4.32 ± 0.23 | -2.61 ± 0.23
CUAAAGCAAUAUUACGGCCG | 0.821 ± 0.14 | 0.575 ± 0.21
UUACAGCAAUAUUACGAGCG | -0.688 ± 0.088 | -0.631 ± 0.096
UUUGAGCAAUAUUACGGAUC | -3.24 ± 0.37 | -2.24 ± 0.44
GUGCAGCAAUAUUACGCCCU | -1.57 ± 0.14 | -0.805 ± 0.16
CUGGAGCAAUAUUACGUCCC |  | -1.4 ± 0.46
AUUGAGCAAUAUUACGGGCA | -2.81 ± 0.23 | -2.3 ± 0.29
AGGCAGCAAUAUUACGGGCA | -1.39 ± 0.2 | -0.422 ± 0.17
CCGGAGCAAUAUUACGCUUA | -2.45 ± 0.24 | -3.19 ± 0.35
UCACAGCAAUAUUACGGUGU | -2.41 ± 0.17 | -2.23 ± 0.14
UCUGAGCAAUAUUACGGUAA | -2.84 ± 0.33 | -2.24 ± 0.3

Reference: the supplement of paper PMC7877785
